The chains are these.
B2: LG-EndoEC, full length extracellular region of human endoglin (residues 22-587), low glycosylation (domain or fragment, UniProt P17813 22-587, looked up)
chain: TSLAETVHCDLQPVGPERGEVTYTTSQVSKGCVAQAPNAILEVHVLFLEFPTGPSQLELTLQASKQNGTWPREVLLVLSVNSSVFLHLQALGIPLHLAYNSSLVTFQEPPGVNTTELPSFPKTQILEWAAERGPITSAAELNDPQSILLRLGQAQGSLSFCMLEASQDMGRTLEWRPRTPALVRGCHLEGVAGHKEAHILRVLPGHSAGPRTVTVKVELSCAPGDLDAVLILQGPPYVSWLIDANHNMQIWTTGEYSFKIFPEKNIRGFKLPDTPQGLLGEARMLNASIVASFVELPLASIVSLHASSCGGRLQTSPAPIQTTPPKDTCSPELLMSLIQTKCADDAMTLVLKKELVAHLKCTITGLTFWDPSCEAEDRGDKFVLRSAYSSCGMQVSASMISNEAVVNILSSSSPQRKKVHCLNMDSLSFQLGLYLSPHFLQASNTIEPGQQSFVQVRVSPSVSEFLLQLDSCHLDLGPEGGTVELIQGRAAKGNCVSLLSPSPEGDPRFSFLLHFYTVPIPKTGTLSCTVALRPKTGSQDQEVHRTVFMRLNIISPDLSGCTSKGL
modifications: short, well defined sugars of the type Man5NAG2 (low glycosylation); putative Asn glycosylation sites Asn88, Asn102, Asn121, Asn134 and Asn307 (Asn306 in Figure 1)
notes: endoglin, human, extracellular region, residues 22-587; Dimeric and monomeric species seen on gels; also called endoglin ectodomain; source: HEK293S GnTI- suspension cells, transfected, secreted, purified (HisTrap, gel filtration); not shown: 6xHis, C-terminal, kept

Data set [1] deals with Endo362, endoglin orphan domain construct with the linker region (residues 22-361 or 22-362) (human) (UniProt P17813). Put plainly: SDS-PAGE under reducing and non-reducing conditions with anti-His6 western blot; 10% SDS gel, 0.5 µg protein; with or without 10 mM DTT (1 h, 65°C); boiled at 95°C for 5 min; disulfide-linked dimer.
Data set [2] has as its target Bone morphogenetic protein 9 (BMP-9) (human) (UniProt Q9UK05). Put plainly: SPR; Biacore T100; BMP-9 immobilised on CM5 chip by amine coupling; analyte alone at six concentrations 12.5-400 nM; 25°C; 10 mM HEPES pH 7.4, 150 mM NaCl, 3 mM EDTA, 0.05% P20; 1:1 binding model, global fit; apparent KD; triplicates. In general terms: In SPR one partner is held on a chip, and binding of the other changes the refractive index at the surface.

Data set [3] addresses T1, HG-EndoEC, full length extracellular region of human endoglin (residues 22-587), high glycosylation (human, UniProt P17813 22-587, mature, branched sugars (high glycosylation); putative Asn glycosylation sites Asn88, Asn102, Asn121, Asn134 and Asn307 (Asn306 in Figure 1)).
T1 construct: endoglin, human, extracellular region, residues 22-587; EndoEC dimerized to some extent through a disulfide bond; also called endoglin ectodomain; source: HEK293 FreeStyle (HEK293F), transfected, secreted, purified (HisTrap, gel filtration)
T1 sequence (looked up): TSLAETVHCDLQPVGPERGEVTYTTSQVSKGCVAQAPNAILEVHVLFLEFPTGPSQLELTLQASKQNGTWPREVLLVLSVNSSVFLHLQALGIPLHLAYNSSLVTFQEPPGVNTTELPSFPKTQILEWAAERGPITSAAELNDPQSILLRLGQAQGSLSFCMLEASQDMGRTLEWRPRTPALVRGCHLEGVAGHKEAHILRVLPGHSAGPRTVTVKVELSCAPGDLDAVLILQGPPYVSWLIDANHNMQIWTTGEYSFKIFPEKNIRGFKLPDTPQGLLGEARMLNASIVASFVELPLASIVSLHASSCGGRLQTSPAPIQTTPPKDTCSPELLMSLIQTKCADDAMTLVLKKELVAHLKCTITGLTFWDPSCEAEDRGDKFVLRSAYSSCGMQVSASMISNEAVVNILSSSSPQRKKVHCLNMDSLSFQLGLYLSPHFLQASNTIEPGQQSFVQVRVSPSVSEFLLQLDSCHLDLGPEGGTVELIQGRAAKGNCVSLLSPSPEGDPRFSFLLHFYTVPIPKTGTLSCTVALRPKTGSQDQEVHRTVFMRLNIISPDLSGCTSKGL
Put plainly: SPR; Biacore T100; endoglin coinjected with a constant saturating concentration of HG-ALK1EC over immobilised BMP-9; 25°C; 10 mM HEPES pH 7.4, 150 mM NaCl, 3 mM EDTA, 0.05% P20; 1:1 binding model. The following applies: both partners purified.

Data set [4] addresses B2. Described as above. The following applies: both partners purified.
Data set [5] concerns the target T1, HG-EndoEC, full length extracellular …. Put plainly: SPR; Biacore T100; BMP-9 immobilised on CM5 chip by amine coupling; analyte alone at six concentrations 12.5-400 nM; 25°C; 10 mM HEPES pH 7.4, 150 mM NaCl, 3 mM EDTA, 0.05% P20; 1:1 binding model, global fit; apparent KD; triplicates. The following applies: both partners purified.
Data set [6] addresses B2. Described as above. The following applies: both partners purified.
Data set [7] addresses T2, Endo338, endoglin orphan domain construct (residues 22-337) (human, UniProt P17813 22-337, Man5NAG2 glycans (5 modelled at their attachment sites)).
T2 construct: also called Endoglin338; OD; source: HEK293S GnTI- suspension cells, transfected, secreted, purified (HisTrap, gel filtration); not shown: 6xHis, C-terminal, kept
T2 sequence (looked up): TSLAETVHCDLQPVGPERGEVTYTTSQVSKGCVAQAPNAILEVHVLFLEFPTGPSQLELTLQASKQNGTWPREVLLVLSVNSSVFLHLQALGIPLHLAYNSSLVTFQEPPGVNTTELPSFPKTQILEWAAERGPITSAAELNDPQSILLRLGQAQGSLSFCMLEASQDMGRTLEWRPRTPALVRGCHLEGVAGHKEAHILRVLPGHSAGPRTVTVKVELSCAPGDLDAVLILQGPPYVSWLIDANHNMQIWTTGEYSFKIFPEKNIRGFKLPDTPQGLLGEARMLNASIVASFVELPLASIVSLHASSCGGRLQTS
Described as above. As to conditions: both partners purified.

Data set [8] deals with the molecule itself. Put plainly: SDS-PAGE under reducing and non-reducing conditions with anti-His6 western blot; 10% SDS gel, 0.5 µg protein; with or without 10 mM DTT (1 h, 65°C); boiled at 95°C for 5 min; disulfide-linked dimer. A general note: Immunoblotting shows a protein as a band on a membrane.

3 molecules from publication PMC3275592, “Structural and Functional Insights into Endoglin Ligand Recognition and Binding” (PLoS ONE, 2012) can be followed below.

Usually stoichiometry N stands for a count of units in the complex or per binding partner. In general, koff refers to the rate constant with which the complex falls apart. The kon is the second-order rate constant of association. “Endo362, endoglin orphan domain construct with the linker region (residues 22-361 or 22-362) (from UniProt P17813 22-361) (domain or fragment)” yielded a stoichiometry N in data set [1] of 2. Besides, in data set [2], the Kd is 8.96 nM, the off-rate (koff) worked out at 0.00108 s⁻¹ and the association rate constant (kon) was determined as 120000 M⁻¹ s⁻¹.

B1: Bone morphogenetic protein 9 (BMP-9) (ligand, human, UniProt Q9UK05 320-429, looked up)
chain: SAGAGSHCQKTSLRVNFEDIGWDSWIIAPKEYEAYECKGGCFFPLADDVTPTKHAIVQTLVHLKFPTKVGKACCVPTKLSPISVLYKDDMGVPTLKYHYEGMSVAECGCR
notes: BMP-9, human, carrier-free protein from R&D Systems; Immobilised on a CM5 chip by amine coupling; also called Bone Morphogenetic Protein (BMP)-9; source: bought: R&D Systems (carrier free)
For the molecule B1, the Kd was found to be 14.7 nM in data set [3]; 3.27 nM in data set [4]; 9.94 nM in data set [5]; 2.01 nM in data set [6]; 276 nM in data set [7]. For the same molecule, the koff in data set [3] is 0.00153 s⁻¹; in data set [4], 0.000925 s⁻¹; in data set [5], 0.00207 s⁻¹; in data set [6], 0.000891 s⁻¹; in data set [7] it was 0.254 s⁻¹. Moreover, the on-rate constant (kon) is 274000 M⁻¹ s⁻¹ in data set [3]; 283000 M⁻¹ s⁻¹ in data set [4]; 208000 M⁻¹ s⁻¹ in data set [5]; 442000 M⁻¹ s⁻¹ in data set [6]; 914000 M⁻¹ s⁻¹ in data set [7].

As for B2, the “stoichiometry N” value in data set [8] worked out at 2.
